Results reported in article PMC3118421.

Molecular target: human dimeric IgA2 anti-NIP, wild type (not stated | human | mouse)
Experiment: rosetting assay

B1: streptococcal IgA-binding M protein Arp4 (M4) (natural protein)
chain: AEIKKPQADSAWNWPKEYNALLKENEELKVEREKYLSYADDKEKDPQYRALMGENQDLRKREGQYQDKIEELEKERKEKQERQEQLERQYQIEADKHYQEQQKKHQQEQQQLEAEKQKLAKDKQISDASRQGLSRDLEASRAAKKELEAEHQKLKEEKQISDASRQGLSRDLEASREAKKKVEADLAALTAEHQKLKEDKQISDASRQGLSRDLEASREAKKKVEADLAEANSKLQALEKLNKELEEGKKLSEKEKAELQARLEAEAKALKEQLAKQAEELAKLKGNQTPNAKVAPQANRSRSAMTQQKRTLPST
  percent inhibition of dIgA binding to hFcα/μR (rosettes, Arp4 at 100 μg/mL): 50%
